Earlier results in paper PMC4525192 (European Journal of Nuclear Medicine and Molecular Imaging, 2014).

System: tumour
Details: intravenously administered

SMILES: C[C@@H](O)[C@@H]1NC(=O)[C@H](CCCCN)NC(=O)[C@@H](Cc2c[nH]c3ccccc23)NC(=O)[C@H](Cc2ccc(O)cc2)NC(=O)[C@@H](NC(=O)[C@@H](Cc2ccccc2)NC(=O)CN2CCN(CC(=O)O)CCN(CC(=O)O)CCN(CC(=O)O)CC2)CSSC[C@@H](C(=O)N[C@H](CO)[C@@H](C)O)NC1=O [DOTATOC, (DOTA^0-Phe^1-Tyr^3) octreotide]
- Time after injection at which 80 % of Umax is reached: 45 min
- Time of tumoral accumulation maximum (Umax) after injection: about 70 min
